Laboratory results from US20240410900A1 (Hoffmann-La Roche, published 2024).
Substitutions are numbered along the chain they refer to.

B1: anti-PG variant Fc-region antibody M1.3.17 (antibody, V domains shown)
VH: EVKLLESGGGLVQPGGSLKLSCAASGIDFRRYWMNWVRQAPGKGLEWIGEIDPDSSTINYTPSLKDKFIISRDNAKNTMYLQMRKVRSEDTALYYCARPYDYGAWFAYWGQGTLVTVSA
VL: QAVVTQESALTTSPGETVTLTCRSTTGAVTTSNYANWVQEKPDHLFTGLIGGTNKRAPGVPARFSGSLIGDKAALTITGAQTEDEAIYFCALWYSDHWVFGGGTKLTVL
notes: Monomeric, bivalent full-length antibody with murine variable domains; Biotinylated when used as capture antibody; also called anti-PG antibody clone 1.3.17; M1.3.17-Bi
B2: anti-PG variant Fc-region antibody M1.7.24 (monomeric, bivalent) (antibody, V domains shown)
VH: B1 VH with I27F, R30S, D52T, M79L, R84I, A97V, Y108S
VL: B1 VL with T25S, D96N
notes: Full-length Y-shaped antibody with murine variable domains; Biotinylated when used as capture antibody; also called anti-PG antibody clone 1.7.24; M1.7.24-Bi
B3: anti-AAA variant Fc-region antibody M1.6.22 (antibody, V domains shown)
VH: EVQLVESGGDLVKPGGSLKLSCAASGFTFSSYGMSWVRQTPDKRLEWVATISSGGSYIYYPDSVKGRFTISRDNAKNTLYLQMSSLKSEDTAMYYCARLGMITTGYAMDYWGQGTSVTVSS
VL: DVLMTQTPLSLPVSLGDQASISCRSSQTIVHSTGHTYLEWFLQKPGQSPKLLIYKVSNRFSGVPDRFSGSGSGTDFTLKISRVEAEDLGVYYCFQGSHVPYTFGGGTKLEIK
notes: Murine variable domains; also called M1.6.22-Bi

These binders were tested against T1, anti-VEGF/ANG2 antibody (IgG1 subclass with mutations P329G/L234A/L235A) (assay: ELISA assay C, tracer FcγRI-Dig, target 0 ng/mL (blank)).
T1 construct: Positions are EU numbers; also called sample 2; antibody 2

signal [OD405 nm]	Binder
1.23	B1
0.092	B2
0.064	B3

Each binder was assayed against T2, anti-P-Selectin antibody (IgG4 subclass with mutations S228P/L235E) in the same assay as above.
T2 construct: Positions are EU numbers; also called sample 4; antibody 4

signal [OD405 nm]	Binder
1.19	B1
0.076	B2
0.077	B3

Each binder was assayed against T3, anti-VEGF/ANG2 antibody (IgG1 subclass with mutations P329G/L234A/L235A/I253A/H310A/H435A) in the same assay as above.
T3 construct: Format of the bispecific antibody not described; Positions are EU numbers, not positions on the UniProt entry; also called sample 1; antibody 1

signal [OD405 nm]	Binder
1.18	B1
0.076	B2
0.077	B3

What follows are binders tested against T4, anti-VEGF/ANG2 antibody (wild-type IgG1 subclass) (UniProt P01857-1 1-330 = IgG part) in the same assay as above.
T4 construct: also called sample 5; antibody 5

signal [OD405 nm]	Binder
1.2	B1
0.073	B2
0.069	B3

What follows are binders tested against T5, anti-IGF-1R antibody (IgG1 subclass with mutations I253A/H310A/H435A) in the same assay as above.
T5 construct: Positions are EU numbers; also called sample 3; antibody 3

signal [OD405 nm]	Binder
1.22	B1
0.086	B2
0.069	B3

The binders below were run against T1, anti-VEGF/ANG2 antibody (IgG1 subclass …) (assay: ELISA assay C, tracer FcγRI-Dig, target 25 ng/mL).

signal [OD405 nm]	Binder
1.21	B1
0.083	B2
0.063	B3

These binders were tested against T2, anti-P-Selectin antibody (IgG4 subclass …) (assay: ELISA assay C, tracer FcγRI-Dig, target 25 ng/mL).

signal [OD405 nm]	Binder
1.17	B1
0.07	B2
0.06	B3

The binders below were run against T3, anti-VEGF/ANG2 antibody (IgG1 subclass …) (assay: ELISA assay C, tracer FcγRI-Dig, target 25 ng/mL).

signal [OD405 nm]	Binder
1.07	B1
0.082	B2
0.081	B3

The binders below were run against T4, anti-VEGF/ANG2 antibody (wild-type IgG1 …) (assay: ELISA assay C, tracer FcγRI-Dig, target 25 ng/mL).

signal [OD405 nm]	Binder
1.16	B1
0.063	B2
0.066	B3

These binders were tested against T5, anti-IGF-1R antibody (IgG1 subclass …) (assay: ELISA assay C, tracer FcγRI-Dig, target 25 ng/mL).

signal [OD405 nm]	Binder
1.2	B1
0.073	B2
0.401	B3

The binders below were run against T1, anti-VEGF/ANG2 antibody (IgG1 subclass …) (assay: ELISA assay B, tracer M1.7.10-Dig, target 50 ng/mL).
Description: (§1) Biotinylated anti-PG Fc-region antibody or biotinylated anti-AAA Fc-region antibody, respectively, was bound to the wells of a streptavidin-coated multi-well plate (SA-MTP) to produce a capture plate. Excess of unbound antibody was removed by washing. Sample/standard antibodies spiked in human and cynomolgus monkey serum (10% final concentration) was added to wells of the SA-MTP multi-well plate coated with the capture plate and incubated for 1 hour at room temperature. After washing, the wells were incubated with digoxygenylated anti-human kappa antibody M1.7.10 (see e.g. WO 2011/048043, incorporated herein by reference). After washing the bound digoxygenylated anti-human kappa antibody complex was incubated with a horseradish peroxidase (HRP) labelled anti-digoxygenin antibody. After another washing step, an ABTS solution was added to the wells and incubated. The product of the color reaction was measured by Elisa reader at 405 nm wavelength (reference wavelength: 490 nm). Absorbance values of each sample or standard were determined in triplicates.

signal [OD405 nm]	Binder
0.215	B1
3.17	B2
0.127	B3

What follows are binders tested against T2, anti-P-Selectin antibody (IgG4 subclass …) (assay: ELISA assay B, tracer M1.7.10-Dig, target 50 ng/mL).
Description: as §1

signal [OD405 nm]	Binder
0.049	B1
0.043	B2
0.047	B3

The binders below were run against T3, anti-VEGF/ANG2 antibody (IgG1 subclass …) (assay: ELISA assay B, tracer M1.7.10-Dig, target 50 ng/mL).
Description: as §1

signal [OD405 nm]	Binder
0.035	B1
0.06	B2
0.05	B3

The binders below were run against T4, anti-VEGF/ANG2 antibody (wild-type IgG1 …) (assay: ELISA assay B, tracer M1.7.10-Dig, target 50 ng/mL).
Description: as §1

signal [OD405 nm]	Binder
0.042	B1
0.04	B2
0.049	B3

These binders were tested against T5, anti-IGF-1R antibody (IgG1 subclass …) (assay: ELISA assay B, tracer M1.7.10-Dig, target 50 ng/mL).
Description: as §1

signal [OD405 nm]	Binder
0.048	B1
0.064	B2
2.9	B3

What follows are binders tested against T1, anti-VEGF/ANG2 antibody (IgG1 subclass …) (assay: ELISA assay B, tracer M1.7.10-Dig, target 0 ng/mL (blank)).
Description: as §1

signal [OD405 nm]	Binder
0.038	B1
0.046	B2
0.038	B3

The binders below were run against T2, anti-P-Selectin antibody (IgG4 subclass …) in the same assay as above.
Description: as §1

signal [OD405 nm]	Binder
0.049	B1
0.035	B2
0.038	B3

These binders were tested against T3, anti-VEGF/ANG2 antibody (IgG1 subclass …) in the same assay as above.
Description: as §1

signal [OD405 nm]	Binder
0.035	B1
0.049	B2
0.047	B3

What follows are binders tested against T4, anti-VEGF/ANG2 antibody (wild-type IgG1 …) in the same assay as above.
Description: as §1

signal [OD405 nm]	Binder
0.043	B1
0.039	B2
0.037	B3

What follows are binders tested against T5, anti-IGF-1R antibody (IgG1 subclass …) in the same assay as above.
Description: as §1

signal [OD405 nm]	Binder
0.045	B1
0.04	B2
0.037	B3

These binders were tested against T4, anti-VEGF/ANG2 antibody (wild-type IgG1 …) (assay: ELISA assay B, tracer M1.7.10-Dig, target 2 ng/mL).
Description: as §1

signal [OD405 nm]	Binder
0.043	B1
0.034	B2
0.036	B3

The binders below were run against T3, anti-VEGF/ANG2 antibody (IgG1 subclass …) (assay: ELISA assay C, tracer FcγRI-Dig, target 100 ng/mL).

signal [OD405 nm]	Binder
1.19	B1
0.05	B2
0.079	B3

The binders below were run against T5, anti-IGF-1R antibody (IgG1 subclass …) (assay: ELISA assay C, tracer FcγRI-Dig, target 100 ng/mL).

signal [OD405 nm]	Binder
1.2	B1
0.11	B2
2.1	B3
